Laboratory results reported in patent US20250281595A1.

Molecular target: purified B/Washington/02/2019 HA full ectodomain (wild type) fused with TEV cleavage motif, trimeris (influenza B virus B/Washington/02/2019 (B/Victoria)) (UniProt P22092)
Assay: BLI (Octet Red), […], Fab CR9114 at 20 ug/ml; […]

Substance fAb CR9114 has an OCTET CR9114 30° C. response of 0.48 nm and an OCTET Fab CR9114 response of 0.38 nm.
